Experimental data from the DeepSol protein solubility set.

Assay: soluble on expression in E. coli; label from the status in PepcDB or PDB records

| Sequence | soluble on expression in E. coli |
| --- | --- |
| MSTIAAGRFAKDDVDQDTKWWKEYPSKHYIERARPQNYYDEFVQNAWSKSKRLARAASFTNLTYIKDKDMDFPIRKSDSVSTLAPSLALPQYCREAQRIVHTVPVYKPTVHDWYNKSYSDARWRDTHREINKPYKPLDTYISPASSHVPYYSFQTKRIFFDEKARQLAPYLKESQRYMDRYVSSRLKADDYANRFAYTAYEWRKPQDHSFNREFMTTQGVFVATPTGIPHQHYDKFGMRRLYKRTGRFFF | not soluble |
| MSTIHTPLTYNEINGKPFGLDYELAKQFADYLGVKLKVTVRQNISQLFDDLDNGNADLLAAGLVYNSERVKNYQPGPTYYSVSQQLVYKVGQYRPRTLGNLTAEQLTVAPGHVVVNDLQTLKETKFPELSWKVDDKKGSAELMEDVIEGKLDYTIADSVAISLFQRVHPELAVALDITDEQPVTWFSPLDGDNTLSAALLDFFNEMNEDGTLARIEEKYLGHGDDFDYVDTRTFLRAVDAVLPQLKPLFEKYAEEIDWRLLAAIAYQESHWDAQATSPTGVRGMMMLTKNTAQSLGITDRTDAEQSISGGVRYLQDMMSKVPESVPENERIWFALAAYNMGYAHMLDARALTAKTKGNPDSWADVKQRLPLLSQKPYYSKLTYGYARGHEAYAYVENIRKYQISLVGYLQEKEKQATEAAMQLAQDYPAVSPTELGKEKFPFLSFLSQSSSNYLTHSPSLLFSRKGSEEKQNLEHHHHHH | soluble |
| MSTKELEERKVCFFCKILGFLSFPAIKIRIGTPANTISRHLTGFASYCIHLAVGVAHTRPEPELADDSRCYGNILDLVKRKKVTNWTQTRLVVEGKLGEGLRGIAYKVKHRNTMKCLKLLPLSWTSRNKEALEDLVALRSLKTIKKETPNYLTFFDSFVLTNLPASTQDKLNQLDPQCPATHYLGLLVELGSNSLDNTMLTTAVEGLSIVKQLVLSLVIAKRRLDTNHNDVHPGNVLVKRSASPKTLKYTLDGKVIRIPSHGLVVGIIDFSEASFGRANGNSDVGFLSFITEEISKTLSKAENRTFQTAIDGLTDARSITAIYPNASIFKKH | not soluble |
| MSTLEIKNLHAQVVPADESAAPKPILKGVNLTIKSGETHAIMGPNGSGKSTLAYTLSGHPRYEVTDGEVLLDGENILDMDIDERARAGLFLAMQYPTEIPGVSMANFLRSAATAVRGEAPKLREWVKEVKQAQQDLKIDKAFNERSVNEGFSGGEKKRHEVLQLDLLQPKFAVMDETDSGLDVDALRIVSEGINRYQEKSNGGILMITHYKRILNYVQPDFVHVFANGQIITSGGPELADDLEANGYDRFLA | not soluble |
| MSTLLKSAKSIVPLMDRVLVQRIKAQAKTASGLYLPEKNVEKLNQAEVVAVGPGFTDANGNKVVPQVKVGDQVLIPQFGGSTIKLGNDDEVILFRDAEILAKIAKD | not soluble |
| MSTPIPPSSPPSTPTTRANNRTKSFSGTGTVATTACICGNVPIALSANTLADSLKVSPLYKQQDSARWNAAAQVYRTSRAVSPTLEEKEKFGFDNAYINQMISPKMSIPKTPISLEEIADMNRKRHEVEGGVIPSDDDVGPLELEAIAAVHELAHEVQDISVSEMLPRTSDLIFVNVKTQEGSPYTLELTMKGWRIASSHTDCMNGDYTKISLHTKYYRNARELLKFISPDHATRFNECVAQKLSKLAEVAVQ | not soluble |
| MSTPRQILAAIFDMDGLLIDSEPLWDRAELDVMASLGVDISRRNELPDTLGLRIDMVVDLWYARQPWNGPSRQEVVERVIARAISLVEETRPLLPGVREAVALCKEQGLLVGLASASPLHMLEKVLTMFDLRDSFDALASAEKLPYSKPHPQVYLDCAAKLGVDPLTCVALEDSVNGMIASKAARMRSIVVPAPEAQNDPRFVLSNVKLSSLTELTAKDLLG | soluble |
| MSTSLTIRLVAEADWPALHALDQIIWTKKNTPAEIQPLSLAAYQEKMKDETIFVAISGQQLAGFIEVHPPTSLAAHQKQWLLSIGVSPDFQDQGIGGSLLSYIKDMAEISGIHKLSLRVMATNQEAIRFYEKHGFVQEAHFKEEFYINGHYCDDYQYAYFIEK | soluble |
| MSTTFAARLNRLFDTVYPPGRGPHTSAEVIAALKAEGITMSAPYLSQLRSGNRTNPSGATMAALANFFRIKAAYFTDDEYYEKLDKELQWLCTMRDDGVRRIAQRAHGLPSAAQQKVLDRIDELRRAEGIDA | soluble |
| MSTVTITDLARENVRNLTPYQSARRLGGNGDVWLNANEYPTAVEFQLTQQTLNRYPECQPKAVIENYAQYAGVKPEQVLVSRGADEGIELLIRAFCEPGKDAILYCPPTYGMYSVSAETIGVECRTVPTLDNWQLDLQGISDKLDGVKVVYVCSPNNPTGQLINPQDFRTLLELTRGKAIVVADEAYIEFCPQASLAGWLAEYPHLAILRTLSKAFALAGLRCGFTLANEEVINLLMKVIAPYPLSTPVADIAAQALSPQGIVAMRERVAQIIAEREYLIAALKEIPCVEQVFDSETNYILARFKASSAVFKSLWDQGIILRDQNKQPSLSGCLRITVGTREESQRVIDALRAEQV | soluble |
| MSTVVDRLQRMTLNLTSPDGNLCATVDAERRARFHLRDETRFERYDAPTLSTQVKALLTTMNSGRELGIKRAYAADGREPAAVNGTHWDAAHRRFEAALATLELEGYSEDGLLLLQSGFDLSGYRVTIDRDDLPRTSPEQFLRELSGAYRDLLAHRRQRRAELLREHLGT | not soluble |
| MSVDSEETSSNGVVPPNSLPPKPEARFGRHVRSFSVDSDFFDDLGVTEEKFIATSSGEKKKGNHHHSRSNSMDGEMSSASFNIESILASVSGKDSGKKNMGMGGDRLAELALLDPKRAKRILANRQSAARSKERKIRYTGELERKVQTLQNEATTLSAQVTMLQRGTSELNTENKHLKMRLQALEQQAELRDALNEALRDELNRLKVVAGEIPQGNGNSYNRAQFSSQQSAMNQFGNKTNQQMSTNGQPSLPSYMDFTKRG | soluble |
| MSVEEEKGLLARADEFLQAFKKGAEFTQELLRENERLRFRTLQLEADQKGEGVAAALAVENRKLAARVEELEREIAEIIGQIRQIEAENNDFAARYVEIEEENNNLANLYIASYQLHSTLDFSEVLQIITEIIINLIGAEEFAVMLVDEKTGSLDAVAAEGISLEELPRVRLGEGVIGIAAGTGENYFAEGPETYERDLLRPMVCIPLKIKEHVIGVIAIYKLLIQKKSFASVDYELFTLLAGHAATAIFSSRIYSDSERKLSTMQGFINLLTT | not soluble |
| MSVFHDEVEIEDFEFDEEKDVYHYPCPCGDRFEIPREMLEMGEDVAQCPSCSLLIRVIYDPEDFVKLETISTSKPIAEPV | not soluble |
| MSVSFMELGSADSAEAAANKVAHHVEQMMETSDFFDRLTQHGTTPVSGLGEKFYVKGAPEFVSTRRIPIPGELQMQMSNIHSEFSMGFFTQISRVWVVIDNNLYMWNYETNDDLAFFDSSDAAILKVSLVNIKPGVFEPEIQYGLVVGTISDICLYPVFDFVENGASSISIDSKRCFKIALDGATVNDISYTSNGRVFYTADDQLFEFVYEKQNGWFGSTNHKCRGVNQTASILGTLISLPFFGSSKEPLDQITIDKSRNIMYLLGRAGTVSVWDLGADGAACAKFLSVPISKIAHEAHILTQFGHDETSFHSITSIKALEASQSAALNLVATTAKGVRLYFSVSTGPQSTMAMFNNSGTPNERNRPQTSVRPQCLRVAHVRFAPGVTPASIYGDGPNGVSVVYADECTRL | not soluble |
| MSVTYDDSVGVEVSSDSFWEVGNYKRTVKRIDDGHRLCSDLMNCLHERARIEKAYAQQLTEWARRWRQLVEKGPQYGTVEKAWMAFMSEAERVSELHLEVKASLMNDDFEKIKNWQKEAFHKQMMGGFKETKEAEDGFRKAQKPWAKKLKEVEAAKKAHHAACKEEKLAISREANSKADPSLNPEQLKKLQDKIEKCKQDVLKTKEKYEKSLKELDQGTPQYMENMEQVFEQCQQFEEKRLRFFREVLLEVQKHLDLSNVAGYKAIYHDLEQSIRAADAVEDLRWFRANHGPGMAMNWPQFEEWSADLNRTLSRREKKKATDGVTLTGINQTGDQSLPSKPSSTLNVPSNPAQSAQSQSSYNPFEDEDDTGSTVSEKDDTKAKNVSSYEKTQSYPTDWSDDESNNPFSSTDANGDSNPFDDDATSGTEVRVRALYDYEGQEHDELSFKAGDELTKMEDEDEQGWCKGRLDNGQVGLYPANYVEAIQ | soluble |
| MSVVALVLAAGSSVRFGADKRRSLMADGRSLLVHSVESACAVFDDVRVVLREGERGVDLGLPARCRVVSSPNFTLGMGHSLAAGAASLADSEAQAVAILLGDMPWVASATLDLLAREASGSTIVLPCHAGRQGHPVLFGRDFWPALARLKGDEGARSVVKANPAVCVRLEVQDAGVLQDVDRPDAVRPLEHHHHHH | soluble |
| MSWNCLLPIFVGFFVLFYEGQCQPARWTQQPGGQNPQPGASFPPNMNPVTNGPGSWTQKPGGYNNGPGSGSFKSTKPPRGLVYYQPKNYPYKPGKGGKYMHADPILPNANERLSAQSDQYTVSDGITGDWSKIVANSKGFYVLHPVQTKSEEDIFDPYTIGQVIGYLYEVQEFGGKKPPSGKYTIELMGKKIPDHLKKKRSLFGSPDRTRRATLVFKKKEQVKSTL | not soluble |
| MSYGLIIVLMIILGIGLWHTKKYHRAVVNQVAHVWITKNAFEHTALGMAIVSPDCRFLKVNRAYGEITGYTRPELLKMAVKELTHPEDQEKDTPYLQEVFAGNIHSFTTVKRYIHKNGSTIWVRSTISAVRTERGNLEHHHHHH | soluble |
| MSYKEGDVLVTNGEQSPGYKIVEIKGLVVGITVRSRGLGKNIIASLRSLLGGEIKEYVELAEQARLQALQRMVDNAKALGANAVVNVRFDSNELSEAMDEIIAYGTAVVVEKSS | soluble |
| MSYRKKLTSPEDAVGLIRSGMRVFVSGNAATPTPLLKALAARKDELENVELVHLLQMGEDPFASLEMEGHFRRRSLFVGPADREAVNQGRADYVPVMLHQVPWLFKRGILPLDAAIVQVSPPDEHGFCSLGVEVIATKAAVEAAPIVIAMVNPRMPRTLGDTFVHVSRFTAIVEVDWPLPELKREGFGEVERRIGEHVAGLIEDGATLQMGIGAIPDAVLASLEGRRDLGVHTEMISDGVLEAWEKGLITGAKKSLHPGKIVGTFVLGSERLYRFVHDNPLFELHPADYVNDPFVIAQNRKMVAINSAIEVDLTGQVVADSIGTRIYSGFGGQLDFIRGAARSEGGKPIIALPSTAKGQSRIVPFLKPGAGVVTTRADVHYVVTEWGVAELFGRSLRERAKALIAIAHPDFREALLQGAWERGLLPRGYPGVDLKGLEEKRGRP | soluble |
| MSYVIDRRLNGKNKSTVNRQRFLRRYRDHIKKAVEEAVSRRSITDMEHGEQISIPGRDIDEPVLHHGRGGKQTVVHPGNKEFTTGEHIARPQGGAGGKGPGKAGNSGEGMDEFSFQITQEEFLEFMFEDLELPNLVKRNLTGTDTFKTVRAGISNEGNPSRINIIRTLRSAHARRIALSGSSRAKLREATSELERIKREEPDNFGDIQALEVEIDRLKARIRRVPYLDTFDLKYNLLVKQPNPSSKAVMFCLMDVSGSMTQATKDIAKRFFILLYLFLKRNYDKIDVVFIRHHTSAREVDEEEFFYSRETGGTIVSSALKLMQEIMAARYPSSDWNIYAAQASDGDNWNDDSPICREILTKQIMPFVQYYTYVEITPREHQALWYEYERIGDDFADTFAQQQLVSAGDIYPVFRELFQRRLVSAAALEHHHHHH | not soluble |
| MSYYHHHHHHLESTSLYKKAGFMADQLTPHLEIPTAIKPRDGRFGSGPSKVRLEQLQTLTTTAAALFGTSHRQAPVKNLVGRVRSGLAELFSLPDGYEVILGNGGATAFWDAAAFGLIDKRSLHLTYGEFSAKFASAVSKNPFVGEPIIITSDPGSAPEPQTDPSVDVIAWAHNETSTGVAVAVRRPEGSDDALVVIDATSGAGGLPVDIAETDAYYFAPQKNFASDGGLWLAIMSPAALSRIEAIAATGRWVPDFLSLPIAVENSLKNQTYNTPAIATLALLAEQIDWLVGNGGLDWAVKRTADSSQRLYSWAQERPYTTPFVTDPGLRSQVVGTIDFVDDVDAGTVAKILRANGIVDTEPYRKLGRNQLRVAMFPAVEPDDVSALTECVDWVVERL | soluble |
